According to patent US20110300138A1 (published 2011):
One block for each substance: values may come before it.

How the values were obtained:
[1] = biological target: TSH receptor (full length human TSHR) coated on tubes (human) (UniProt P16473); assay: 125I-TSH bound to TSHR coated tubes, in assay buffer
[2] = biological target: TSH receptor (full length human TSHR) coated on tubes (human) (UniProt P16473); assay: 125I-TSH bound to TSHR coated tubes, in HBD pool serum
[3] = biological target: TSHR260-AP (fusion protein consisting of a fragment of human TSHR, amino acids 22-260, with alkaline phosphatase) (human); assay: bridging ELISA: full length TSHR on wells, TSHR260-AP in liquid phase; IgG 0.05 µg/mL in HBD serum
[4] = biological target: TSHR260-AP (fusion protein consisting of a fragment of human TSHR, amino acids 22-260, with alkaline phosphatase) (human); assay: bridging ELISA: full length TSHR on wells, TSHR260-AP in liquid phase; IgG 0.5 µg/mL in HBD serum
[5] = biological target: TSHR260-AP (fusion protein consisting of a fragment of human TSHR, amino acids 22-260, with alkaline phosphatase) (human); assay: bridging ELISA: full length TSHR on wells, TSHR260-AP in liquid phase; IgG 1 µg/mL in HBD serum
[6] = biological target: TSHR260-AP (fusion protein consisting of a fragment of human TSHR, amino acids 22-260, with alkaline phosphatase) (human); assay: bridging ELISA: full length TSHR on wells, TSHR260-AP in liquid phase; IgG 0.005 µg/mL in HBD serum
[7] = biological target: TSHR260-AP (fusion protein consisting of a fragment of human TSHR, amino acids 22-260, with alkaline phosphatase) (human); assay: bridging ELISA: full length TSHR on wells, TSHR260-AP in liquid phase; IgG 10 µg/mL in HBD serum
[8] = biological target: TSHR260-AP (fusion protein consisting of a fragment of human TSHR, amino acids 22-260, with alkaline phosphatase) (human); assay: bridging ELISA: full length TSHR on wells, TSHR260-AP in liquid phase; IgG 0.01 µg/mL in HBD serum
[9] = biological target: TSHR260-AP (fusion protein consisting of a fragment of human TSHR, amino acids 22-260, with alkaline phosphatase) (human); assay: bridging ELISA: full length TSHR on wells, TSHR260-AP in liquid phase; IgG 1 µg/mL in HBD serum; remark: listed apart in the source
[10] = biological target: TSHR260-AP (fusion protein consisting of a fragment of human TSHR, amino acids 22-260, with alkaline phosphatase) (human); assay: bridging ELISA: full length TSHR on wells, TSHR260-AP in liquid phase; IgG 10 µg/mL in HBD serum; remark: listed apart in the source
[11] = biological target: TSHR260-AP (fusion protein consisting of a fragment of human TSHR, amino acids 22-260, with alkaline phosphatase) (human); assay: bridging ELISA: full length TSHR on wells, TSHR260-AP in liquid phase; IgG 0.005 µg/mL in HBD serum; remark: listed apart in the source
[12] = biological target: TSHR260-AP (fusion protein consisting of a fragment of human TSHR, amino acids 22-260, with alkaline phosphatase) (human); assay: bridging ELISA: full length TSHR on wells, TSHR260-AP in liquid phase; IgG 0.5 µg/mL in HBD serum; remark: listed apart in the source
[13] = biological target: TSHR260-AP (fusion protein consisting of a fragment of human TSHR, amino acids 22-260, with alkaline phosphatase) (human); assay: bridging ELISA: full length TSHR on wells, TSHR260-AP in liquid phase; IgG 0.1 µg/mL in HBD serum
[14] = biological target: TSHR260-AP (fusion protein consisting of a fragment of human TSHR, amino acids 22-260, with alkaline phosphatase) (human); assay: as above; remark: listed apart in the source
[15] = biological target: TSHR260-AP (fusion protein consisting of a fragment of human TSHR, amino acids 22-260, with alkaline phosphatase) (human); assay: bridging ELISA: full length TSHR on wells, TSHR260-AP in liquid phase; IgG 0.01 µg/mL in HBD serum; remark: listed apart in the source
[16] = biological target: TSHR260-AP (fusion protein consisting of a fragment of human TSHR, amino acids 22-260, with alkaline phosphatase) (human); assay: bridging ELISA: full length TSHR on wells, TSHR260-AP in liquid phase; IgG 0.05 µg/mL in HBD serum; remark: listed apart in the source
[17] = biological target: TSHR260-alkaline phosphatase (TSHR260-AP) (human) (UniProt P05187); assay: TSHR260-AP bridge ELISA, full length TSHR on wells; 10 µg/mL, diluted in HBD
[18] = biological target: TSHR260-alkaline phosphatase (TSHR260-AP) (human) (UniProt P05187); assay: TSHR260-AP bridge ELISA, full length TSHR on wells; 0.005 µg/mL, diluted in HBD
[19] = biological target: human thyroid stimulating hormone receptor (TSHR), full length (human) (UniProt P16473); assay: 125I-K1-18 Fab competition, TSHR coated tubes; 0.01 µg/mL in HBD
[20] = biological target: TSHR260-alkaline phosphatase (TSHR260-AP) (human) (UniProt P05187); assay: TSHR260-AP bridge ELISA, full length TSHR on wells; 0.1 µg/mL, diluted in assay buffer
[21] = biological target: human TSH receptor (full length), coated on tubes (human) (UniProt P16473); assay: inhibition of 125I-K1-70 Fab (competitor) binding to TSHR coated tubes; 0.003 µg/mL in HBD serum pool
[22] = biological target: TSH receptor (TSHR) coated on tubes (human) (UniProt P16473); assay: inhibition of 125I-K1-70 IgG binding to TSHR coated tubes; sample 0.01 µg/mL in HBD serum pool
[23] = biological target: TSHR260-alkaline phosphatase (TSHR260-AP) (human) (UniProt P05187); assay: TSHR260-AP bridge ELISA, full length TSHR on wells; 0.1 µg/mL, diluted in HBD
[24] = biological target: human thyroid stimulating hormone receptor (TSHR), full length (human) (UniProt P16473); assay: 125I-K1-18 Fab competition, TSHR coated tubes; 0.001 µg/mL in assay buffer
[25] = biological target: TSHR260-alkaline phosphatase (TSHR260-AP) (human) (UniProt P05187); assay: TSHR260-AP bridge ELISA, full length TSHR on wells; 0.005 µg/mL, diluted in assay buffer
[26] = biological target: TSH receptor (TSHR), full length human, coated on tubes (human) (UniProt P16473); assay: inhibition of 125I-TSH binding to TSHR coated tubes; 0.001 µg/mL, diluted in HBD serum pool
[27] = biological target: human TSH receptor (full length), coated on tubes (human) (UniProt P16473); assay: inhibition of 125I-K1-70 Fab (competitor) binding to TSHR coated tubes; 0.03 µg/mL in HBD serum pool
[28] = biological target: TSHR260-alkaline phosphatase (TSHR260-AP) (human) (UniProt P05187); assay: TSHR260-AP bridge ELISA, full length TSHR on wells; 10 µg/mL, diluted in assay buffer
[29] = biological target: TSHR260-alkaline phosphatase (TSHR260-AP) (human) (UniProt P05187); assay: TSHR260-AP bridge ELISA, full length TSHR on wells; 250 µg/mL, diluted in HBD
[30] = biological target: TSH receptor (TSHR), full length human, coated on tubes (human) (UniProt P16473); assay: inhibition of 125I-TSH binding to TSHR coated tubes; 0.003 µg/mL, diluted in HBD serum pool

125I-TSH binding (%) [1]: 17.7%
125I-TSH binding (%) [2]: 16%
Substance: 125I-TSH (ligand)

Mean absorbance at 405 nm (absorbance at 405 nm) [3]: 0.292
Mean absorbance at 405 nm (absorbance at 405 nm) [4]: 1.02
Mean absorbance at 405 nm (absorbance at 405 nm) [5]: 1.09
Mean absorbance at 405 nm (absorbance at 405 nm) [6]: 0.011
Mean absorbance at 405 nm (absorbance at 405 nm) [7]: 1.36
Mean absorbance at 405 nm (absorbance at 405 nm) [8]: 0.064
Mean absorbance at 405 nm (absorbance at 405 nm) [9]: 1.17
Mean absorbance at 405 nm (absorbance at 405 nm) [10]: 1.27
Mean absorbance at 405 nm (absorbance at 405 nm) [11]: 0.032
Mean absorbance at 405 nm (absorbance at 405 nm) [12]: 1.09
Mean absorbance at 405 nm (absorbance at 405 nm) [13]: 0.548
Mean absorbance at 405 nm (absorbance at 405 nm) [14]: 0.599
Mean absorbance at 405 nm (absorbance at 405 nm) [15]: 0.043
Mean absorbance at 405 nm (absorbance at 405 nm) [16]: 0.332
Substance: M22 IgG (human monoclonal thyroid stimulating autoantibody, hMAb TSHR1)

Mean absorbance at 405 nm (absorbance at 405 nm) [17]: 0.01
Mean absorbance at 405 nm (absorbance at 405 nm) [18]: -0.013
Inhibition of binding (%) [19]: 20.4%
Mean absorbance at 405 nm (absorbance at 405 nm) [20]: 0.015
Inhibition of binding (%) [21]: 11.5%
Inhibition of binding (%) [22]: 34%
Mean absorbance at 405 nm (absorbance at 405 nm) [23]: -0.007
Inhibition of binding (%) [24]: -0.7%
Mean absorbance at 405 nm (absorbance at 405 nm) [25]: -0.004
Inhibition of binding (%) [26]: -11.2%
Inhibition of binding (%) [27]: 66.8%
Mean absorbance at 405 nm (absorbance at 405 nm) [28]: 0.034
Mean absorbance at 405 nm (absorbance at 405 nm) [29]: 0.031
Inhibition of binding (%) [30]: -7.9%
Substance: M22 Fab
